Ends that are not written are not given here.
Key:
[1] = molecular target: binding of FAM19A5 protein to full-length ectodomain of the LRRC4B protein (amino acids 36-576 of SEQ ID NO: 2) (Homo sapiens, UniProt Q7Z5A7); assay: Competitive inhibition assay, plate coated with full-length ectodomain of LRRC4B (amino acids 36-576); conditions: for inhibition of interaction between FAM19A5 and the coated LRRC4B protein fragments (in words): statement covers both coats, LRRC4B (36-576) and LRRC4B (453-576); for inhibition of FAM19A5 binding to coated full-length LRRC4B ectodomain protein (in words): increasing concentrations, FAM19A5 5 ng/mL, 100 nM coat
Chain of binding of FAM19A5 protein to full-length ectodomain of the LRRC4B protein (amino acids 36-576 of SEQ ID NO: 2) (Q7Z5A7 44-132): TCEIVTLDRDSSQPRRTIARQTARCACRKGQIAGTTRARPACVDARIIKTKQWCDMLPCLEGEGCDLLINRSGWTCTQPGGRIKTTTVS
Procedure: Next, to further assess the role that the binding domain of the LRRC4B protein has on the interaction between FAM19A5 protein and members of the LRRC4 protein family, a competitive inhibition assay was used to determine whether different LRRC4B deletion constructs from Example 2 could inhibit the binding of FAM19A5 to the full-length ectodomain of the LRRC4B protein (i.e., amino acids 36-576 of SEQ ID NO: 2; SEQ ID NO: 5). Briefly, 100 nM of the full-length ectodomain of the LRRC4B protein was used to coat a plate, and then recombinant FAM19A5 protein (5 ng/mL) was added to the plate in combination with the following LRRC4B deletion constructs (increasing concentrations): (1) LRRC4B (453-576) (i.e., construct #11 in Table 6); (2) LRRC4B (453-576) mutant (comprises alanine substitutions at positions 488 and 489 of SEQ ID NO: 2; SEQ ID NO: 16); (3) LRRC4B (484-576) (i.e., construct #12 in Table 6); (4) LRRC4B (482-576); (5) LRRC4B (482-497); and (6) LRRC4B (498-576). The plates were incubated at 37° C., and then, the amount of FAM19A5 bound to the coated LRRC4B ectodomain protein was measured using HRP-conjugated anti-FAM19A5 (1-65) antibody.
As described in Example 3, there appeared to be much similarity in the binding domains of the different members of the LRRC4 family. […] Then, recombinant FAM19A5 protein (5 ng/mL) was added in combination with one of the following: (i) LRRC4B (484-576) protein fragment, (ii) LRRC4B (453-576, AA) protein fragment, and (iii) synthetic FB-20 peptide. The plates were incubated at 37° C., and then, the amount of FAM19A5 protein bound to the coated LRRC4, LRRC4B, or LRRC4C proteins was measured using anti-FAM19A5 (1-65) antibody.
(§1) Next, to assess whether polypeptides comprising the binding domains of LRRC4 or LRRC4C proteins can have similar inhibitory effects on LRRC4B protein binding, the following synthetic peptides were constructed: (1) FBC4-23 (contains the binding domain of the LRRC4 protein, i.e., YSFFTTVTVETTE); and (2) FBC4C-23 (contains the binding domain of the LRRC4C protein, i.e., FSYFSTVTVETME). Then, the ability of the peptides to inhibit the binding of LRRC4 protein family members to FAM19A5 protein was assessed using a competitive inhibition assay. Briefly, plates were coated with 100 nM of either LRRC4B protein fragment #1 (amino acids 36-576 of SEQ ID NO: 2; SEQ ID NO: 5) or LRRC4B protein fragment #2 (amino acids 453-576 of SEQ ID NO: 2; SEQ ID NO: 7). Then, recombinant FAM19A5 protein (5 ng/ml for plates coated with LRRC4B fragment #1; and 1 ng/mL for plates coated with LRRC4B fragment #2) was added to the plates in combination with 20 nM of the FBC4-23, FBC4C-23, and FB-20 peptides. The plates were incubated at 37° C. and then, the amount of FAM19A5 protein bound to the coated LRRC4B protein fragments was assessed using HRP-conjugated anti-FAM19A5 (1-65) antibody.
Next, to determine the minimal sequence required to inhibit the interaction of FAM19A5 and members of the LRRC4 protein family, ten FB-20 peptide variants were constructed by serially deleting one or more amino acids from the N-terminus or C-terminus of the FB-20 peptide. Then, a competitive inhibition assay was used to assess the ability of the different FB-20 peptide variants to inhibit the interaction between FAM19A5 and LRRC4B protein. Again, plates were coated with 100 nM of either LRRC4B protein fragment #1 (amino acids 36-576 of SEQ ID NO: 2; SEQ ID NO: 5) or LRRC4B protein fragment #2 (amino acids 453-576 of SEQ ID NO: 2; SEQ ID NO: 7). Then, recombinant FAM19A5 protein (5 ng/ml for plates coated with LRRC4B fragment #1; and 1 ng/mL for plates coated with LRRC4B fragment #2) was added to the plates in combination with 20 nM of the different peptides described above. After incubating the plates at 37° C., the amount of FAM19A5 protein bound to the coated LRRC4B protein fragments was assessed using HRP-conjugated anti-FAM19A5 (1-65) antibody. […]

[2] = molecular target: binding of FAM19A5 protein to LRRC4B (amino acids 453-576)-hFc (Homo sapiens, UniProt Q7Z5A7); assay: Competitive inhibition assay, plate coated with LRRC4B (amino acids 453-576)-hFc, peptides at 20 nM
Chain of binding of FAM19A5 protein to LRRC4B (amino acids 453-576)-hFc (Q7Z5A7 44-132): as above
From the text: as §1
Next, to determine the minimal sequence required to inhibit the interaction of FAM19A5 and members of the LRRC4 protein family, ten FB-20 peptide variants were constructed by serially deleting one or more amino acids from the N-terminus or C-terminus of the FB-20 peptide. Then, a competitive inhibition assay was used to assess the ability of the different FB-20 peptide variants to inhibit the interaction between FAM19A5 and LRRC4B protein. Again, plates were coated with 100 nM of either LRRC4B protein fragment #1 (amino acids 36-576 of SEQ ID NO: 2; SEQ ID NO: 5) or LRRC4B protein fragment #2 (amino acids 453-576 of SEQ ID NO: 2; SEQ ID NO: 7). Then, recombinant FAM19A5 protein (5 ng/ml for plates coated with LRRC4B fragment #1; and 1 ng/mL for plates coated with LRRC4B fragment #2) was added to the plates in combination with 20 nM of the different peptides described above. After incubating the plates at 37° C., the amount of FAM19A5 protein bound to the coated LRRC4B protein fragments was assessed using HRP-conjugated anti-FAM19A5 (1-65) antibody.
To identify the critical amino acid residues, multiple FB-20 peptide mutants were constructed, in which the individual residues of the core binding domain (i.e., YTYFTTVTVETLE; SEQ ID NO: 15) were substituted with alanine (A) or asparagine (N). Then, the ability of these FB-20 peptide mutants to inhibit the interaction between LRRC4B and FAM19A5 proteins was assessed, as described in Examples 3 and 4.

[3] = Table 10, alanine/asparagine mutants
[4] = Table 9, deletion variants, 20 nM peptide, FAM19A5 5 ng/ml
[5] = Table 9, deletion variants, 20 nM peptide, FAM19A5 1 ng/mL

| Molecule | Inhibition rate (%) LRRC4B (amino acids 36-576)-hFc [1, 3] | Inhibition rate (%) LRRC4B (amino acids 453-576)-hFc [2, 3] | also measured |
| --- | --- | --- | --- |
| GATYFTTVTVETLETQPGEE [FB-20[A1]] | 17.2% | 3.6% |  |
| KNYTYFTTVTVETNKETQ [FB-m11dC] |  |  | inhibition of interaction between FAM19A5 and the coated LRRC4B protein fragments (in words) ([1]; 20 nM peptide): substantially inhibited the interaction; Inhibition rate (%) LRRC4B (amino acids 36-576)-hFc [1, 4]: 65.0%; Inhibition rate (%) LRRC4B (amino acids 453-576)-hFc [2, 5]: 30.4% |
| GYTYFTAVTVETLETQPGEE [FB-20[A6]] | 17.9% | 11.0% |  |
| GYTYFTTVTNETLETQPGEE [FB-20[N9]] | 17.5% | 6.5% |  |
| GNTYFTTVTVETLETQPGEE [FB-20[N1]] | 11.9% | 3.1% |  |
| GYTYFTTATVETLETQPGEE [FB-20[A7]] | 26.8% | 7.9% |  |
| GYTYFTTVTVATLETQPGEE [FB-20[A10]] | 19.6% | 6.4% |  |
| GYTYFTTVTVNTLETQPGEE [FB-20[N10]] | 27.0% | 10.8% |  |
| GYTYFATVTVETLETQPGEE [FB-20[A5]] | 53.4% | 22.2% |  |
| GYTYFTTNTVETLETQPGEE [FB-20[N7]] | 24.5% | 8.3% |  |
| GYTYFTTVTVETAETQPGEE [FB-20[A12]] | 73.0% | 56.2% |  |
| NFSYFSTVTVETMEPSQDERTTR [FBC4C-23] |  |  | inhibition of interaction between FAM19A5 and the coated LRRC4B protein fragments (in words) ([1]; 20 nM peptide): significantly decreased the interaction; Inhibition rate (%) LRRC4B (amino acids 36-576)-hFc ([1]; Table 8, 20 nM peptide, FAM19A5 5 ng/ml): 65.7%; Inhibition rate (%) LRRC4B (amino acids 453-576)-hFc ([2]; Table 8, 20 nM peptide, FAM19A5 1 ng/mL): 40.4% |
| GYTYFNTVTVETLETQPGEE [FB-20[N5]] | 56.1% | 30.5% |  |
| GYNYFTTVTVETLETQPGEE [FB-20[N2]] | −0.7% | −2.0% |  |
| GYTYFTTVTVEALETQPGEE [FB-20[A11]] | 73.4% | 50.3% |  |
| KNFTTVTVETNKETQ [FB-m8dN] |  |  | inhibition of interaction between FAM19A5 and the coated LRRC4B protein fragments (in words) ([1]; 20 nM peptide): failed to significantly inhibit; Inhibition rate (%) LRRC4B (amino acids 36-576)-hFc [1, 4]: 3.3%; Inhibition rate (%) LRRC4B (amino acids 453-576)-hFc [2, 5]: −1.1% |
| GYTYNTTVTVETLETQPGEE [FB-20[N4]] | −1.3% | 2.5% |  |
| LRRC4B (482-497): LRRC4B ectodomain fragment, amino acids 482-497 of SEQ ID NO: 2 (GGYTYFTTVTVETLET; also: dimerising Fc or GST fusion left off) |  |  | inhibition of FAM19A5 binding to coated full-length LRRC4B ectodomain protein (in words) [1]: also able to inhibit the interaction |
| KNTTVTVETNKETQ [FB-m7dN] |  |  | inhibition of interaction between FAM19A5 and the coated LRRC4B protein fragments (in words) ([1]; 20 nM peptide): failed to significantly inhibit; Inhibition rate (%) LRRC4B (amino acids 36-576)-hFc [1, 4]: 2.0%; Inhibition rate (%) LRRC4B (amino acids 453-576)-hFc [2, 5]: −1.8% |
| GYTYFTTVTAETLETQPGEE [FB-20[A9]] | 21.5% | 3.8% |  |
| GYTYFTTVAVETLETQPGEE [FB-20[A8]] | 3.9% | −0.4% |  |
| KNYFTTVTVETNKETQ [FB-m9dN] |  |  | inhibition of interaction between FAM19A5 and the coated LRRC4B protein fragments (in words) ([1]; 20 nM peptide): failed to significantly inhibit; Inhibition rate (%) LRRC4B (amino acids 36-576)-hFc [1, 4]: 2.5%; Inhibition rate (%) LRRC4B (amino acids 453-576)-hFc [2, 5]: −1.6% |
| GYAYFTTVTVETLETQPGEE [FB-20[A2]] | 1.0% | −0.4% |  |
| KNYTYFTTVNKETQ [FB-m7dC] |  |  | inhibition of interaction between FAM19A5 and the coated LRRC4B protein fragments (in words) ([1]; 20 nM peptide): failed to significantly inhibit; Inhibition rate (%) LRRC4B (amino acids 36-576)-hFc [1, 4]: 4.4%; Inhibition rate (%) LRRC4B (amino acids 453-576)-hFc [2, 5]: 0.4% |
| GYTNFTTVTVETLETQPGEE [FB-20[N3]] | −5.0% | 4.0% |  |
| KNYTYFTTNKETQ [FB-m6dC] |  |  | inhibition of interaction between FAM19A5 and the coated LRRC4B protein fragments (in words) ([1]; 20 nM peptide): failed to significantly inhibit; Inhibition rate (%) LRRC4B (amino acids 36-576)-hFc [1, 4]: 14.9%; Inhibition rate (%) LRRC4B (amino acids 453-576)-hFc [2, 5]: 5.5% |
| GYTYFTNVTVETLETQPGEE [FB-20[N6]] | −11.4% | −0.4% |  |
| KNTYFTTVTVETNKETQ [FB-m10dN] |  |  | inhibition of interaction between FAM19A5 and the coated LRRC4B protein fragments (in words) ([1]; 20 nM peptide): failed to significantly inhibit; Inhibition rate (%) LRRC4B (amino acids 36-576)-hFc [1, 4]: 7.7%; Inhibition rate (%) LRRC4B (amino acids 453-576)-hFc [2, 5]: 0.0% |
| GYTYFTTVNVETLETQPGEE [FB-20[N8]] | 2.9% | −2.4% |  |
| LRRC4B (482-576): LRRC4B ectodomain fragment, amino acids 482-576 of SEQ ID NO: 2 (protein) GGYTYFTTVTVETLETQPGEEALQPRGTEKEPPGPTTDGVWGGGRPGDAAGPASSSTTAPAPRSSRPTEKAFTVPITDVTENALKDLDDVMKTTK |  |  | inhibition of FAM19A5 binding to coated full-length LRRC4B ectodomain protein (in words) [1]: also able to inhibit the interaction |

Source: patent US20240238445A1, “INHIBITORS AND USES THEREOF” (NEURACLE SCIENCE CO., LTD., priority 2021, published 2024)
